Experimental data: patent US20220144957A1 (IMMUNECENT BIOTECHNOLOGY, published 2022)

T1: human IFNAR1, full length (IFNAR1-aa1-557) (human) (UniProt P17181)
T1 sequence (looked up): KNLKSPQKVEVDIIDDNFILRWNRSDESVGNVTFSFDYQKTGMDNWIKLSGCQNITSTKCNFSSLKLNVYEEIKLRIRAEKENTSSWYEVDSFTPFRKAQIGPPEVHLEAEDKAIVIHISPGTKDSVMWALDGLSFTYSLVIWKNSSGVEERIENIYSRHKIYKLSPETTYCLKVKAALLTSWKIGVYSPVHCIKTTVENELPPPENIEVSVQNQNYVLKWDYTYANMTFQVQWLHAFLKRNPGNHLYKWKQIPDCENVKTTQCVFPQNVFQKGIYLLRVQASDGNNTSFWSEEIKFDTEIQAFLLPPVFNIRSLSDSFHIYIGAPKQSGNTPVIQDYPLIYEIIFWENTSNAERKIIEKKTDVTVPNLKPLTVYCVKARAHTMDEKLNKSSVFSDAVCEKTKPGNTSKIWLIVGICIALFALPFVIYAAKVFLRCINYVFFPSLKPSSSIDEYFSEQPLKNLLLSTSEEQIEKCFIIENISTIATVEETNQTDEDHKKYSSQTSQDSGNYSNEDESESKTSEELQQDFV

T2: Human IFNAR1 SD1-SD4 (human, UniProt P17181 28-436, limits assumed)
T2 construct: domain: SD1-SD4; Antigen injected in the Biacore assay
T2 sequence (looked up): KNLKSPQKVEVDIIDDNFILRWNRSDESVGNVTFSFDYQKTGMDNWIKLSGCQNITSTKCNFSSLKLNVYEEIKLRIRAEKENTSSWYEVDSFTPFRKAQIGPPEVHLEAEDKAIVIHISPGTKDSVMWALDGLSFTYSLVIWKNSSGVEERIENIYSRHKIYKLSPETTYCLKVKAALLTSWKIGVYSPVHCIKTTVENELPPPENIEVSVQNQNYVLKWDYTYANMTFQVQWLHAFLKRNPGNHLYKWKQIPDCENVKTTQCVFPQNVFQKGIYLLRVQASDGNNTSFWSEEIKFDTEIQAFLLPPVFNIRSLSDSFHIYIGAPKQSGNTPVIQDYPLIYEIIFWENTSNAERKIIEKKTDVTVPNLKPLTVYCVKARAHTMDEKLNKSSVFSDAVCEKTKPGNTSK

T3: human IFNAR1 ECD (human, UniProt P17181 28-436)
T3 construct: extracellular domain; Coated on ELISA plates at 5 ug/ml
T3 sequence (looked up): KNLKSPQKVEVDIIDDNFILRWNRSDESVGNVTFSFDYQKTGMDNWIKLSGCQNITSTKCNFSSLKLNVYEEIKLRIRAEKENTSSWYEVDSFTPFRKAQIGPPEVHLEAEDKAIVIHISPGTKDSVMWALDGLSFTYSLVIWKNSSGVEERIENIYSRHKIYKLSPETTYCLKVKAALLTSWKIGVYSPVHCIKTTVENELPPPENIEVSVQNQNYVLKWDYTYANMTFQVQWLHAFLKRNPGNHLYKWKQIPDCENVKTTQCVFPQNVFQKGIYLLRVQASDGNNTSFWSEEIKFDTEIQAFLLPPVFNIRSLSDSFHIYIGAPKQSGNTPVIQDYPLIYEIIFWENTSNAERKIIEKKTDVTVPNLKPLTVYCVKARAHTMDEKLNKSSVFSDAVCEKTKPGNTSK

T4: human IFNAR1, full length (IFNAR1-aa1-557) (human, UniProt P17181 28-557)
T4 construct: whole, on cells; Overexpressed on HEK293T cells from pIRES2-EGFP-IFNAR1; also used here for the human IFNAR1 of the IFN-I reporter cells and the cells of the virus assays; also called IFNAR1-WT; wild type IFNAR1
T4 sequence (looked up): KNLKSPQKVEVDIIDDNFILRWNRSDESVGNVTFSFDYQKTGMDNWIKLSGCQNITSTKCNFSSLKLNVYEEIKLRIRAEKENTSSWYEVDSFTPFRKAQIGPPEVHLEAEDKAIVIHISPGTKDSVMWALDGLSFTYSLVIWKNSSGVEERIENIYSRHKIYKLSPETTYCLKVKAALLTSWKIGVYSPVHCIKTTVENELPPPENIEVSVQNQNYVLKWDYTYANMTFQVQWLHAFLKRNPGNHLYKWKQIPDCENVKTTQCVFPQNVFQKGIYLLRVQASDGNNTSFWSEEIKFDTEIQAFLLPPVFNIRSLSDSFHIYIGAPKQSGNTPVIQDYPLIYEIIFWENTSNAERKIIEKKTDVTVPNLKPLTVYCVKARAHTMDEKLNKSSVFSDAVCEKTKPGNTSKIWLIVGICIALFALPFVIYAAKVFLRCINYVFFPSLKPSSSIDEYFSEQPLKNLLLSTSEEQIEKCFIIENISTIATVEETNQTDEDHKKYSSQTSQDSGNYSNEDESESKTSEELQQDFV


Tests used:
[1] = target: T1, human IFNAR1, full length (IFNAR1-aa1-557) (human); assay: cell-based or functional assay
Human IFNAR1 SD1-SD4 = target: T2, Human IFNAR1 SD1-SD4; assay: SPR (Biacore 8K), antibody captured on anti-human IgG Fc, antigen injected
Procedure: Preparation of a CM5 chip surface: Using HBS-EP+ (10 mM HEPES, 150 mM NaCl, 3 mM EDTA, 0.05% surfactant P20) as running buffer, both channel 1&2 of a CM5 sensor chip (GE Healthcare, BR-1000-30) were activated with a fresh mixture of 50 mM NHS and 200 mM EDC (1:1). Anti-human IgG Fc, 20 μg/ml in 10 mM NaOAc buffer (pH 5.0), was then passed over the activated surface of the two flow cells in each channel at 10 l/min (target around 10000 RU). […] Low flow rate was maintained over 2 hours for the equilibrium of the immobilized protein.
Measurement of binding kinetics: Each antibody was captured in flow cell FC2 in channel 1&2 around 250 RU respectively, using FC1 as the reference cell, followed by injection of antigen samples at varying concentrations. The signals with captured antibody subtracted from that without captured antibody were calculated with Biacore 8K evaluation software. The running buffer was HBS-EP+(10 mM HEPES, 150 mM NaCl, 3 mM EDTA, 0.05% surfactant P20).

human IFNAR1 ECD = target: T3, human IFNAR1 ECD; assay: ELISA, plate coated with human IFNAR1 ECD, anti-human IgG Fc-peroxidase, OD450
Procedure: 96-well plates were coated with 100ul 5 ug/ml human IFNAR1 ECD in 1×PBS and incubate at 4° C. overnight. The plates were then washed with PBST (1×PBS+0.05% Tween20) for 3 times and blocked with the blocking buffer (1×PBS+0.05% Tween20+1% BSA) at RT for 2 hr. […] The plates were washed with PBST for 3 times, followed by addition of antibody (Anti-Human IgG (Fc specific)-Peroxidase antibody produced in goat, ZSGB-BIO) at 100ul/well and then incubated at RT for 1 hr. The plates were washed with PBST 5 times and then 100ul/well TMB was added and after 15 minutes, the plates were quenched with 50ul/well 2N H₂SO₄. The plates were read with Molecular device spectra max at 450 nm.

[2] = target: T4, human IFNAR1, full length …; assay: flow cytometry on cells expressing human IFNAR1, MFI of PE

Binder | blocking effect on GFP expression induced by IFNα1 in IFN-I reporter cells (++ = greater than 80%) [1] [%] | blocking effect on GFP expression induced by IFNα2a in IFN-I reporter cells (++ = greater than 80%) [1] [%] | blocking effect on GFP expression induced by IFNα2b in IFN-I reporter cells (++ = greater than 80%) [1] [%] | blocking effect on GFP expression induced by IFNα4 in IFN-I reporter cells (++ = greater than 80%) [1] [%] | blocking effect on GFP expression induced by IFNα5 in IFN-I reporter cells (++ = greater than 80%) [1] [%] | blocking effect on GFP expression induced by IFNα6 in IFN-I reporter cells (++ = greater than 80%) [1] [%] | blocking effect on GFP expression induced by IFNα7 in IFN-I reporter cells (++ = greater than 80%) [1] [%] | blocking effect on GFP expression induced by IFNα8 in IFN-I reporter cells (++ = greater than 80%) [1] [%] | blocking effect on GFP expression induced by IFNα10 in IFN-I reporter cells (++ = greater than 80%) [1] [%] | blocking effect on GFP expression induced by IFNα14 in IFN-I reporter cells (++ = greater than 80%) [1] [%] | blocking effect on GFP expression induced by IFNα16 in IFN-I reporter cells (++ = greater than 80%) [1] [%] | blocking effect on GFP expression induced by IFNα17 in IFN-I reporter cells (++ = greater than 80%) [1] [%] | blocking effect on GFP expression induced by IFNα21 in IFN-I reporter cells (++ = greater than 80%) [1] [%] | blocking effect on GFP expression induced by IFNω in IFN-I reporter cells (++ = greater than 80%) [1] [%] | Kd (Human IFNAR1 SD1-SD4) [nM] | koff (Human IFNAR1 SD1-SD4) [s⁻¹] | kon (Human IFNAR1 SD1-SD4) [M⁻¹ s⁻¹] | EC50 (human IFNAR1 ECD) [ng/mL] | Top (human IFNAR1 ECD) [OD450] | other results
IFNAR1 monoclonal antibody 10C2 (antibody, from another filing, V domains shown) VH: QIQLVQSGPELKKPGETVKISCKASGYTFTNYGMNWVKQAPGKGLKWMGWINTYTGEPTYSDDFKGRFAFSLETSASTANLQINNLKDEDAATYFCAREGAIYYGDYVYFGVWGAGTTVTVSS VL: DIVMTQSQKFMSTSVGDRVSITCKASQNVGTAVAWYQEKPGQSPKLLIYSASNRYTGVPDRFTGSGSGTAFTLTISNMQSEDLADYFCQQYYNYPLTFGAGTKLEVKR | > 80 | > 80 | > 80 | > 80 | > 80 | > 80 | > 80 | > 80 | > 80 | > 80 | > 80 | > 80 | > 80 | > 80 |  |  |  |  |  | fold decrease in percentage of GFP positive reporter cells with serum from SLE patients [1]: 3 fold; percentage of GFP positive reporter cells with human IFNβ and 10 µg/mL antibody [1]: 20%
IFNAR1 monoclonal antibody 10C9 (antibody, from another filing, V domains shown) VH: QIQLVQSGPELKKPGETVKISCKASGYTFTNYGVNWMKQAPGKGLKWMGWINTYTGEPTYADDFKGRFAFSLETSASTAYLQINNLKNEDTATYFCAREGVYYYGDWAWLAYWGQGTLVTVSA VL: DIVMTQSQKFISTSVGDRVSVTCKASQNVGTNVAWYQQKPGQSPKTLIYSTSYRYNGVPDRFTGSGSGTDFTLTISNVQSEDLAEYFCQQYNSYYTFGGGTKLEIK | > 80 | > 80 | > 80 | > 80 | > 80 | > 80 | > 80 | > 80 | > 80 | > 80 | > 80 | > 80 | > 80 | > 80 |  |  |  |  |  | 
Hu4-14 (antibody, V domains shown, Humanized 7G4 variant) VH: QVQLVQSGAEVKKPGASVKVSCKASGYTFTSYWMNWVRQAPGQGLEWMGKIDPSDSETHFNQKFRDRVTLTVDKSTSTVYMELSSLRSEDTAVYYCARGGRISFDYDAALDYWGQGTLVTVSS VL: DIQMTQSPSSLSASVGDRVTITCKSSEVIYNRLAWYQQKPGNAPKLLISGATTLESGVPSRFSGSGSGKDYTLTISSLQPEDFATYYCQQYWNKPFTFGQGTKLEIK |  |  |  |  |  |  |  |  |  |  |  |  |  |  | 0.461 | 0.000214 | 465000 | 2.27 | 3.1 | 
Hu4-13 (antibody, V domains shown, Humanized 7G4 variant) VH: QVQLVQSGAEVKKPGASVKVSCKASGYTFTSYWMNWVRQAPGQGLEWMGKIDPSDSETHFNQKFRDRVTMTRDTSTSTVYMELSSLRSEDTAVYYCARGGRISFDYDAALDYWGQGTLVTVSS VL: DIQMTQSPSSLSASVGDRVTITCKSSEVIYNRLAWYQQKPGNAPKLLISGATTLESGVPSRFSGSGSGKDYTLTISSLQPEDFATYYCQQYWNKPFTFGQGTKLEIK |  |  |  |  |  |  |  |  |  |  |  |  |  |  | 0.671 | 0.000301 | 449000 | 3.27 | 3.4 | EC50 (read off the curve) [2]: ~40 ng/mL
Hu4-15 (antibody, V domains shown, Humanized 7G4 variant) VH: QVQLVQSGAEVKKPGASVKVSCKASGYTFTSYWMNWVRQAPGQGLEWIGKIDPSDSETHFNQKFRDRVTLTVDKSTSTVYMELSSLRSEDTAVYYCARGGRISFDYDAALDYWGQGTLVTVSS VL: DIQMTQSPSSLSASVGDRVTITCKSSEVIYNRLAWYQQKPGNAPKLLISGATTLESGVPSRFSGSGSGKDYTLTISSLQPEDFATYYCQQYWNKPFTFGQGTKLEIK |  |  |  |  |  |  |  |  |  |  |  |  |  |  | 0.442 | 0.000209 | 472000 | 2.84 | 3.46 | 
